Reference: patent US20110318339A1
Blank lines part the entries; values can stand above or below the substance they belong to.

Legend:
[1] = target: rHuman EGF R/Fc Chimera, CF (Cat# 344-ER) (human) (UniProt P00533); assay: Multispot ECL; Fab 930 nM
[2] = target: rHuman P-Cadherin/Fc Chimera, CF (Cat# 861-PC) (human) (UniProt P22223); assay: Multispot ECL; Fab 930 nM
[3] = target: rHuman EGF R/Fc Chimera, CF (Cat# 344-ER) (human) (UniProt P00533); assay: Multispot ECL; Fab 14.5 nM
[4] = target: rHuman P-Cadherin/Fc Chimera, CF (Cat# 861-PC) (human) (UniProt P22223); assay: Multispot ECL; Fab 14.5 nM
[5] = target: rHuman EGF R/Fc Chimera, CF (Cat# 344-ER) (human) (UniProt P00533); assay: Multispot ECL; Fab 58.1 nM
[6] = target: rHuman P-Cadherin/Fc Chimera, CF (Cat# 861-PC) (human) (UniProt P22223); assay: Multispot ECL; Fab 58.1 nM
[7] = target: rHuman EGF R/Fc Chimera, CF (Cat# 344-ER) (human) (UniProt P00533); assay: Multispot ECL; Fab 232.5 nM
[8] = target: rHuman P-Cadherin/Fc Chimera, CF (Cat# 861-PC) (human) (UniProt P22223); assay: Multispot ECL; Fab 232.5 nM
[9] = target: rHuman EGF R/Fc Chimera, CF (Cat# 344-ER) (human) (UniProt P00533); assay: Multispot ECL; Fab […]
[10] = target: rHuman ErbB2/Fc Chimera, CF (Cat# 1129-ER) (human) (UniProt P04626); assay: Multispot ECL; Fab […]
[11] = target: rHuman Erythropoietin R/Fc Chimera, CF (Cat# 963-ER) (human) (UniProt P19235); assay: Multispot ECL; Fab […]
[12] = target: rHuman HGF R/c-MET/Fc Chimera, CF (Cat# 358-MT/CF) (human) (UniProt P08581); assay: Multispot ECL; Fab […]
[13] = target: rHuman IGF-1 sR, (IGF-1 sR), CF (Cat# 391-GR) (human) (UniProt P08069); assay: Multispot ECL; Fab […]
[14] = target: rHuman Notch-1/Fc Chimera, CF (Cat# 3647-TK) (human) (UniProt P46531); assay: Multispot ECL; Fab […]
[15] = target: rHuman EGF R/Fc Chimera, CF (Cat# 344-ER) (human) (UniProt P00533); assay: Multispot ECL; Fab 210 nM
[16] = target: rHuman ErbB2/Fc Chimera, CF (Cat# 1129-ER) (human) (UniProt P04626); assay: Multispot ECL; Fab 210 nM
[17] = target: rHuman Erythropoietin R/Fc Chimera, CF (Cat# 963-ER) (human) (UniProt P19235); assay: Multispot ECL; Fab 210 nM
[18] = target: rHuman HGF R/c-MET/Fc Chimera, CF (Cat# 358-MT/CF) (human) (UniProt P08581); assay: Multispot ECL; Fab 210 nM
[19] = target: rHuman IGF-1 sR, (IGF-1 sR), CF (Cat# 391-GR) (human) (UniProt P08069); assay: Multispot ECL; Fab 210 nM
[20] = target: rHuman Notch-1/Fc Chimera, CF (Cat# 3647-TK) (human) (UniProt P46531); assay: Multispot ECL; Fab 210 nM
[21] = target: rHuman EGF R/Fc Chimera, CF (Cat# 344-ER) (human) (UniProt P00533); assay: Multispot ECL; Fab 3.3 nM
[22] = target: rHuman ErbB2/Fc Chimera, CF (Cat# 1129-ER) (human) (UniProt P04626); assay: Multispot ECL; Fab 3.3 nM
[23] = target: rHuman Erythropoietin R/Fc Chimera, CF (Cat# 963-ER) (human) (UniProt P19235); assay: Multispot ECL; Fab 3.3 nM
[24] = target: rHuman HGF R/c-MET/Fc Chimera, CF (Cat# 358-MT/CF) (human) (UniProt P08581); assay: Multispot ECL; Fab 3.3 nM
[25] = target: rHuman IGF-1 sR, (IGF-1 sR), CF (Cat# 391-GR) (human) (UniProt P08069); assay: Multispot ECL; Fab 3.3 nM
[26] = target: rHuman Notch-1/Fc Chimera, CF (Cat# 3647-TK) (human) (UniProt P46531); assay: Multispot ECL; Fab 3.3 nM
[27] = target: rHuman EGF R/Fc Chimera, CF (Cat# 344-ER) (human) (UniProt P00533); assay: Multispot ECL; Fab 52.5 nM
[28] = target: rHuman ErbB2/Fc Chimera, CF (Cat# 1129-ER) (human) (UniProt P04626); assay: Multispot ECL; Fab 52.5 nM
[29] = target: rHuman Erythropoietin R/Fc Chimera, CF (Cat# 963-ER) (human) (UniProt P19235); assay: Multispot ECL; Fab 52.5 nM
[30] = target: rHuman HGF R/c-MET/Fc Chimera, CF (Cat# 358-MT/CF) (human) (UniProt P08581); assay: Multispot ECL; Fab 52.5 nM
[31] = target: rHuman IGF-1 sR, (IGF-1 sR), CF (Cat# 391-GR) (human) (UniProt P08069); assay: Multispot ECL; Fab 52.5 nM
[32] = target: rHuman Notch-1/Fc Chimera, CF (Cat# 3647-TK) (human) (UniProt P46531); assay: Multispot ECL; Fab 52.5 nM
[33] = target: rHuman EGF R/Fc Chimera, CF (Cat# 344-ER) (human) (UniProt P00533); assay: Multispot ECL; Fab 145 nM
[34] = target: rHuman Erythropoietin R/Fc Chimera, CF (Cat# 963-ER) (human) (UniProt P19235); assay: Multispot ECL; Fab 145 nM
[35] = target: rHuman HGF R/c-MET/Fc Chimera, CF (Cat# 358-MT/CF) (human) (UniProt P08581); assay: Multispot ECL; Fab 145 nM
[36] = target: rHuman IGF-1 sR, (IGF-1 sR), CF (Cat# 391-GR) (human) (UniProt P08069); assay: Multispot ECL; Fab 145 nM
[37] = target: rHuman Notch-1/Fc Chimera, CF (Cat# 3647-TK) (human) (UniProt P46531); assay: Multispot ECL; Fab 145 nM
[38] = target: rHuman P-Cadherin/Fc Chimera, CF (Cat# 861-PC) (human) (UniProt P22223); assay: Multispot ECL; Fab 145 nM
[39] = target: rHuman EGF R/Fc Chimera, CF (Cat# 344-ER) (human) (UniProt P00533); assay: Multispot ECL; Fab 580 nM
[40] = target: rHuman ErbB2/Fc Chimera, CF (Cat# 1129-ER) (human) (UniProt P04626); assay: Multispot ECL; Fab 580 nM
[41] = target: rHuman Erythropoietin R/Fc Chimera, CF (Cat# 963-ER) (human) (UniProt P19235); assay: Multispot ECL; Fab 580 nM
[42] = target: rHuman HGF R/c-MET/Fc Chimera, CF (Cat# 358-MT/CF) (human) (UniProt P08581); assay: Multispot ECL; Fab 580 nM
[43] = target: rHuman IGF-1 sR, (IGF-1 sR), CF (Cat# 391-GR) (human) (UniProt P08069); assay: Multispot ECL; Fab 580 nM
[44] = target: rHuman Notch-1/Fc Chimera, CF (Cat# 3647-TK) (human) (UniProt P46531); assay: Multispot ECL; Fab 580 nM
[45] = target: rHuman P-Cadherin/Fc Chimera, CF (Cat# 861-PC) (human) (UniProt P22223); assay: Multispot ECL; Fab 580 nM
[46] = target: rHuman EGF R/Fc Chimera, CF (Cat# 344-ER) (human) (UniProt P00533); assay: Multispot ECL; Fab 9.1 nM
[47] = target: rHuman ErbB2/Fc Chimera, CF (Cat# 1129-ER) (human) (UniProt P04626); assay: Multispot ECL; Fab 9.1 nM
[48] = target: rHuman Erythropoietin R/Fc Chimera, CF (Cat# 963-ER) (human) (UniProt P19235); assay: Multispot ECL; Fab 9.1 nM
[49] = target: rHuman HGF R/c-MET/Fc Chimera, CF (Cat# 358-MT/CF) (human) (UniProt P08581); assay: Multispot ECL; Fab 9.1 nM
[50] = target: rHuman IGF-1 sR, (IGF-1 sR), CF (Cat# 391-GR) (human) (UniProt P08069); assay: Multispot ECL; Fab 9.1 nM
[51] = target: rHuman Notch-1/Fc Chimera, CF (Cat# 3647-TK) (human) (UniProt P46531); assay: Multispot ECL; Fab 9.1 nM
[52] = target: rHuman P-Cadherin/Fc Chimera, CF (Cat# 861-PC) (human) (UniProt P22223); assay: Multispot ECL; Fab 9.1 nM
[53] = target: rHuman EGF R/Fc Chimera, CF (Cat# 344-ER) (human) (UniProt P00533); assay: Multispot ECL; Fab 36.3 nM
[54] = target: rHuman ErbB2/Fc Chimera, CF (Cat# 1129-ER) (human) (UniProt P04626); assay: Multispot ECL; Fab 36.3 nM
[55] = target: rHuman Erythropoietin R/Fc Chimera, CF (Cat# 963-ER) (human) (UniProt P19235); assay: Multispot ECL; Fab 36.3 nM
[56] = target: rHuman HGF R/c-MET/Fc Chimera, CF (Cat# 358-MT/CF) (human) (UniProt P08581); assay: Multispot ECL; Fab 36.3 nM
[57] = target: rHuman IGF-1 sR, (IGF-1 sR), CF (Cat# 391-GR) (human) (UniProt P08069); assay: Multispot ECL; Fab 36.3 nM
[58] = target: rHuman Notch-1/Fc Chimera, CF (Cat# 3647-TK) (human) (UniProt P46531); assay: Multispot ECL; Fab 36.3 nM
[59] = target: rHuman P-Cadherin/Fc Chimera, CF (Cat# 861-PC) (human) (UniProt P22223); assay: Multispot ECL; Fab 36.3 nM

Sequence of rHuman Erythropoietin R/Fc Chimera, CF (Cat# 963-ER) (human) (P19235 25-250, change not shown): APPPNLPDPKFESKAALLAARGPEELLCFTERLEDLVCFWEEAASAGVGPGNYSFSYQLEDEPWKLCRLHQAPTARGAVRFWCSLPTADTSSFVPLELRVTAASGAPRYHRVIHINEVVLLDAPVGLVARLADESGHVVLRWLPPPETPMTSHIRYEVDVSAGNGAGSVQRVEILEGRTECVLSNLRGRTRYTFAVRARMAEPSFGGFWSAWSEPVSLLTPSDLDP

ECL signal [1]: 3110
ECL signal [2]: 2440
ECL signal [3]: 357
ECL signal [4]: 277
ECL signal [5]: 444
ECL signal [6]: 478
ECL signal [7]: 803
ECL signal [8]: 655
Substance: Fab VH1-46_IGHD6-13*01_IGHJ4*01 & O1_IGKJ1*01

ECL signal [9]: 824
ECL signal [10]: 930
ECL signal [11]: 776
ECL signal [12]: 981
ECL signal [13]: 814
ECL signal [14]: 669
ECL signal [15]: 1620
ECL signal [16]: 1980
ECL signal [17]: 2120
ECL signal [18]: 2060
ECL signal [19]: 1430
ECL signal [20]: 1970
ECL signal [21]: 847
ECL signal [22]: 1030
ECL signal [23]: 695
ECL signal [24]: 849
ECL signal [25]: 743
ECL signal [26]: 726
ECL signal [27]: 1110
ECL signal [28]: 1510
ECL signal [29]: 1320
ECL signal [30]: 1290
ECL signal [31]: 911
ECL signal [32]: 1320
Substance: Fab VH4-31_IGHD2-15*01_IGHJ2*01 & V1-4_IGLJ4*01

ECL signal [33]: 856
ECL signal [34]: 845
ECL signal [35]: 1170
ECL signal [36]: 794
ECL signal [37]: 860
ECL signal [38]: 850
ECL signal [39]: 1630
ECL signal [40]: 1710
ECL signal [41]: 1580
ECL signal [42]: 2340
ECL signal [43]: 1360
ECL signal [44]: 1580
ECL signal [45]: 2240
ECL signal [46]: 800
ECL signal [47]: 987
ECL signal [48]: 697
ECL signal [49]: 894
ECL signal [50]: 788
ECL signal [51]: 754
ECL signal [52]: 589
ECL signal [53]: 831
ECL signal [54]: 1030
ECL signal [55]: 722
ECL signal [56]: 1060
ECL signal [57]: 799
ECL signal [58]: 633
ECL signal [59]: 684
Substance: Fab VH4-34_IGHD7-27*01_IGHJ4*01 & V1-4_IGLJ4*01
